Experimental data reported in patent US7824897B2, “Modified tumor necrosis factor-alpha converting enzyme and methods of use thereof” (Schering Corp., priority 2002, dated 2010).

Legend:
Assay type in all cases: physicochemical
TACE [1] = molecular target: T1, TACE (Homo sapiens, UniProt P78536, N452Q/S266A); assay: Stability of TACE (auto-proteolysis) on storage at 4 degrees Celsius, SDS-PAGE; conditions: TACE 15 mg/ml, seven days
T1 construct: Only the catalytic domain was purified; GS linker + His6 (C); made in house; host or cells: Trichoplusia ni (High5) cells, baculovirus
Description: Stability of TACE: The stability of TACE was examined under several buffer conditions at pH 7.5. Twenty microliter aliquots of TACE at 15 mg/ml were desalted over P-6 spin columns (BioRAD, Hercules, Calif.) that had been equilibrated in: • (a) 25 mM Tris, 0.15M NaCl; • (b) 25 mM Tris; or • (c) 25 mM Tris plus N-{D,L-2-(hydroxyaminocarbonyl)methyl-4-methylpentanoyl}-L-3-amino-2-dimethylbutanoyl-L-alanine, 2-(amino)ethyl amide.
The stability of the TACE protein was evaluated after storage at 4 degrees Celsius for seven days. After incubating the TACE polypeptide under the three conditions listed above, Sodium Dodecyl Sulfate PolyAcrylamide Gel Electrophoresis (SDS-PAGE) was performed. […] Moreover, the sequencing data indicated the presence of a single cleavage site at 352Y-V353 of SEQ ID NO: 2.

TACE [2] = assay: Stability of TACE and TACE mutants under different storage conditions, SDS-PAGE; conditions: 25 mM Tris pH 7.5, 4 degrees Celsius, 17 days
Description: (§1) Stability of TACE and TACE mutants: To test for stability under different storage conditions, 20 ul of TACE protein, at 15 mg/ml, was desalted over BIO-RAD P-6 columns equilibrated at pH 7.5 in: • (a) 25 mM Tris, 0.15M NaCl; • (b) 25 mM Tris+1 mM N-{D,L-2-(hydroxyaminocarbonyl)methyl-4-methylpentanoyl}-L-3-amino-2-dimethylbutanoyl-L-alanine, 2-(amino)ethyl amide; or • (c) 25 mM Tris.
(§2) One microliter aliquots were analyzed by SDS-PAGE after storing them for 3 hours, or 17 days at 4 degrees Celsius. […] In direct contrast, all constructs were stable in either 0.15M NaCl, or 1 mM N-{D,L-2-(hydroxyaminocarbonyl)methyl-4-methylpentanoyl}-L-3-amino-2-dimethylbutanoyl-L-alanine, 2-(amino)ethyl amide.

TACE [3] = molecular target: T1, TACE; assay: as above; conditions: 25 mM Tris pH 7.5, 4 degrees Celsius, 3 hours
Description: as §1, §2

Molecule | SDS-PAGE bands after storage with inhibitor (TACE [1]; 25 mM Tris pH 7.5, 1:1.5 molar ratio enzyme:inhibitor, 4 degrees Celsius) | Proteolysis by SDS-PAGE in the absence of salt (TACE [2]) | Proteolysis by SDS-PAGE in the absence of salt (TACE [3]) | SDS-PAGE bands after storage without high salt or inhibitor (TACE [1]; 25 mM Tris pH 7.5, 4 degrees Celsius)
CC(C)CC(CC(=O)NO)C(=O)N[C@H](C(=O)N[C@@H](C)C(=O)NCCN)C(C)(C)C (stereo partly drawn) [N-{D,L-2-(hydroxyaminocarbonyl)methyl-4-methylpentanoyl}-L-3-amino-2-dimethylbutanoyl-L-alanine, 2-(amino)ethyl amide, reference compound] | only a single band having a molecular weight of 30 Kd was observed |  |  | 
TACE: native tumor necrosis factor-alpha converting enzyme catalytic domain (SEQ ID NO: 6), with GS linker and polyHis tag (protein, listed as Homo sapiens, GS linker and polyHis tag) RADPDPMKNTCKLLVVADHRFYRYMGRGEESTTTNYLIELIDRVDDIYRNTAWDNAGFKGYGIQIEQIRILKSPQEVKPGEKHYNMAKSYPNEEKDAWDVKMLLEQFSFDIAEEASKVCLAHLFTYQDFDMGTLGLAYVGSPRANSHGGVCPKAYYSPVGKKNIYLNSGLTSTKNYGKTILTKEADLVTTHELGHNFGAEHDPDGLAECAPNEDQGGKYVMYPIAVSGDHENNKMFSQCSKQSIYKTIESKAQECFQERSNKV |  | completely proteolyzed | substantial proteolysis | two additional fainter bands
V353G: modified TACE catalytic domain, Val353 replaced with glycine (SEQ ID NO: 20) (protein, listed as Homo sapiens) RADPDPMKNTCKLLVVADHRFYRYMGRGEESTTTNYLIELIDRVDDIYRNTAWDNAGFKGYGIQIEQIRILKSPQEVKPGEKHYNMAKSYPNEEKDAWDVKMLLEQFSFDIAEEASKVCLAHLFTYQDFDMGTLGLAYGGSPRANSHGGVCPKAYYSPVGKKNIYLNSGLTSTKNYGKTILTKEADLVTTHELGHNFGAEHDPDGLAECAPNEDQGGKYVMYPIAVSGDHENNKMFSQCSKQSIYKTIESKAQECFQERSNKV |  | highly resistant to auto-proteolysis |  | 
